Data on nine molecules can be found in patent publication US10494657B2, “In vitro production of cyclic peptides” (The University Court of the University of Aberdeen, priority 2012, dated 2019).

Residue numbers refer to the chain shown, from its start. Numbers in names are those of the source.

B1: PatGmacΔ1 (protein)
chain: GEDEIESAGVSASEVESSATKQKVALHPHDLDERIPGLADLHNQTLGDPQITIVIIDGDPDYTLSCFEGAEVSKVFPYWHEPAEPITKDRIVLNDHACHVTSTIVGQEHSPVFGIAPNCRVINMPQDAVIRGNYDDVMSPLNLARAIDLALELGANIIHCAFCRPTQTSEGEEILVQAIKKCQDNNVLIVSPTGNNSNESWCLPAVLPGTLAVGAAKVDGTPCHFSNWGGNNTKEGILAPGEEILGAQPCTEEPVRLTGTSMAAPVMTGISALLMSLQVQQGKPVDAEAVRTALLKTAIPCDPEVVEEPERCLRGFVNIPGAMKVLFGQ
B2: PatGmac: macrocyclase domain of PatG, residues 492-851 (protein)
chain: GEDEIESAGVSASEVESSATKQKVALHPHDLDERIPGLADLHNQTLGDPQITIVIIDGDPDYTLSCFEGAEVSKVFPYWHEPAEPITPEDYAAFQSIRDQGLKGKEKEEALEAVIPDTKDRIVLNDHACHVTSTIVGQEHSPVFGIAPNCRVINMPQDAVIRGNYDDVMSPLNLARAIDLALELGANIIHCAFCRPTQTSEGEEILVQAIKKCQDNNVLIVSPTGNNSNESWCLPAVLPGTLAVGAAKVDGTPCHFSNWGGNNTKEGILAPGEEILGAQPCTEEPVRLTGTSMAAPVMTGISALLMSLQVQQGKPVDAEAVRTALLKTAIPCDPEVVEEPERCLRGFVNIPGAMKVLFGQ
B3: PatGmac R589D K594D K598D (protein)
chain: B2 chain with R98D, K103D, K107D
B4: PatGmac K594D (protein)
chain: B2 chain with K103D
B5: PatGmac K598D (protein)
chain: B2 chain with K107D
B6: H618A: site-directed catalytic triad mutant of PatGmac (inactive mutant) (protein)
chain: B2 chain with H127A
B7: PatGmacΔ2 (protein)
chain: GEDEIESAGVSASEVESSATKQKVALHPHDLDERIPGLADLHNQTLGDPQITIVIIDGDPDYTLSCFEGAEVSKVFPYWHEPAEPILNDHACHVTSTIVGQEHSPVFGIAPNCRVINMPQDAVIRGNYDDVMSPLNLARAIDLALELGANIIHCAFCRPTQTSEGEEILVQAIKKCQDNNVLIVSPTGNNSNESWCLPAVLPGTLAVGAAKVDGTPCHFSNWGGNNTKEGILAPGEEILGAQPCTEEPVRLTGTSMAAPVMTGISALLMSLQVQQGKPVDAEAVRTALLKTAIPCDPEVVEEPERCLRGFVNIPGAMKVLFGQ

The first series concerns […]. Nature of the series: Macrocyclization reaction, final product ratios by LC-ESI MS ion counts.
Details: not given
Format: biochemical. The procedure:
For macrocyclization reactions comparing final product ratios after substrate depletion, 100 μM peptide (VGAGIGFPAYDG) (SEQ ID NO: 68) was incubated with 50 μM enzyme in 150 mM NaCl, 10 mM HEPES pH 8, 1 mM TCEP for 120 h at 37° C. Samples were analyzed by ESI or MALDI MS (LCT, Micromass or 4800 MALDI TOF/TOF Analyser, ABSciex).
LC-MS was performed using a Phenomenex Sunfire C18 column (4.6 mm×150 mm). Solvent A was H2O containing 0.1% formic acid and solvent B was MeOH containing 0.1% formic acid. Gradient: 0-2 min 10% B; 2-22 min 10% B to 100% B; 22-27 min 100% B; 27-30 min 100% B to 10% B. High resolution mass spectral data were obtained from a Thermo Instruments MS system (LTQ XL/LTQ Orbitrap Discovery) coupled to a Thermo Instruments HPLC system (Accela PDA detector, Accela PDA autosampler and Accela Pump). The following conditions were used: capillary voltage 45 V, capillary temperature 320° C., auxiliary gas flow rate 10-20 arbitrary units, sheath gas flow rate 40-50 arbitrary units, spray voltage 4.5 kV, mass range 100-2000 amu (maximum resolution 30000).
The peptide VGAGIGFPAYDG (SEQ ID NO: 68) was used as a substrate for PatGmac in biochemical assays (FIG. 4C[[c]]). The ratio of macrocyclized to linear product using this substrate peptide was determined by ion counts obtained from liquid chromatography-electrospray ionization mass spectrometry (LC-ESI MS).
B1: the “product formed (macrocyclized vs linear)” value is given as “only linear VGAGIGFP”.
As to B2, the “product formed (macrocyclized vs linear)” value is “only macrocyclized product”.
Same read-out and setting: under B3 stands “only produced linear substrate”.
The same measure, in the same setting: under B4 stands “approximately one third of the product was macrocyclized”.
On the same count and under the same terms, with B5 the entry was “only linear VGAGIGFP”; with B6, “no detectable reaction”.
As to B7, the “product formed (macrocyclized vs linear)” value is “only linear VGAGIGFP”.

Staying with this series, now noted: 100 μM peptide, 50 μM enzyme, 120 h at 37° C.
Regarding B1, the “Cyclic ion count (%) (M + H = 699)” value is reported as 0%, the “Linear ion count (%) (M + H = 717)” value is listed as 92% and the “Unprocessed ion count (%) (M + H = 1123)” value is 8%.
For B2 the same measures were 100%, 0% and 0%.
As to B3, the “Cyclic ion count (%) (M + H = 699)” value is on record as 0%, the “Linear ion count (%) (M + H = 717)” value amounted to 6% and the “Unprocessed ion count (%) (M + H = 1123)” value worked out at 94%.
The corresponding values for B4 are 29%, 71% and 0%.
As to B5, the “Cyclic ion count (%) (M + H = 699)” value amounted to 0%, the “Linear ion count (%) (M + H = 717)” value was 100% and the “Unprocessed ion count (%) (M + H = 1123)” value worked out at 0%.
For B7, the “Cyclic ion count (%) (M + H = 699)” value is listed as 0%, the “Linear ion count (%) (M + H = 717)” value is greater than 99% and the “Unprocessed ion count (%) (M + H = 1123)” value is listed as less than 1%.

The test system of the next series is […]. Kind of series: Macrocyclization of substrate with modified recognition sequence (Asp to Arg). Format: biochemical.
Details: not given
The procedure:
(§1) For other macrocyclization reactions, 100 μM peptide (e.g. VGAGIGFPAYDG (SEQ ID NO: 68), VGAGIGFPAYRG (SEQ ID NO: 69), or GVAGIGFPAYRG (SEQ ID NO: 84)) was incubated with 20 μM enzyme in a range of buffers for 24 h at 37° C. (see FIGS. 1 to 3).
(§2) PatGmac K598D produced cyclo[VGAGIGFP] with only 8% linear product, at a rate over an order of magnitude faster than wild-type PatGmac with VGAGIGFPAYDG (SEQ ID NO: 68) (FIGS. 2 and 3).
With B2, the “ratio of macrocyclized and linear products with VGAGIGFPAYRG” value (“ratio” below) was “equal amounts of macrocyclized and linear products”; the “reaction rate with VGAGIGFPAYRG” value is “reacted extremely slowly”.
Take B3: the “ratio” value was “equal amounts of macrocyclized and linear products”; the “reaction rate with VGAGIGFPAYRG” value was “reacted extremely slowly”.
Regarding B4, the “ratio” value is “equal amounts of macrocyclized and linear products”; the “reaction rate with VGAGIGFPAYRG” value is listed as “reacted extremely slowly”.
For B5, the linear product turned out to be 8% and the “reaction rate with VGAGIGFPAYRG” value was “over an order of magnitude faster than wild-type PatGmac with […]”.

For a further series, the system named is […]. Nature of the series: Macrocyclization reaction rate in different buffers (LC-MS). Format: biochemical. The note with it: 500 mM NaCl and 5% DMSO at pH 8. The procedure: as §1
PatGmac is a slow enzyme; turnover rates reported to date are ˜1 per day (Lee, J., McIntosh, J., Hathaway, B. J. & Schmidt, E. W., 2009; McIntosh, J. A. et al., 2010). […] Adding DMSO gave a small increase in rate but shifted the optimum pH, thus a buffer containing 500 mM NaCl and 5% DMSO at pH 8 gave a reaction rate over 50 times greater (FIG. 1C). Under these conditions, about 7% linearized VGAGIGFP (SEQ ID NO: 70) byproduct was observed which can be separated from cyclo[VGAGIGFP] (SEQ ID NO: 70) by HPLC.
In the case of B2, the “linearized VGAGIGFP byproduct” value is recorded as “about 7%” and the reaction rate increase entry is recorded as “over 50 times”.

Staying with this series, now noted: NaCl from 150 mM to 500 mM.
Take B2: the “rate change on increasing sodium chloride” value was “greater than an order of magnitude improvement in rate”.

Still in this series, the particulars now being: pH from 8 to 9, 500 mM NaCl.
B2: the “rate change on increasing pH” value is on record as “further tripled the rate”.

For the next series, the system named is PatE2/PatE2K. Nature of the series: C-terminal cleavage and macrocyclization of heterocyclized, N-terminally cleaved PatE2/PatE2K. Format: biochemical. The settings on record: 100 μM substrate, 20 μM PatGmac, 24 hours at 37° C., 20 mM Bicine pH 8.1, 500 mM NaCl, 5% DMSO. The procedure:
The final stage in patellamide production is C-terminal cleavage and macrocyclization. This step is catalyzed by the PatGmac domain. In order to macrocyclize our single cassette we incubated 100 μM heterocyclized (with either PatD or TruD) and N-terminally cleaved PatE2/PatE2K with 20 μM PatGmac for 24 hours at 37° C. in 20 mM Bicine pH 8.1, 500 mM NaCl, 5% DMSO to complete the reaction. Completeness of the reaction was confirmed by LCT-ESI MS (FIG. 16). […] PatGmac is also highly expressed in E. coli with between 200 and 250 mg purified protein obtained per liter of culture. The final macrocycles were purified by HPLC on a C18 peptide column. PatD and TruD heterocyclised macrocycles were subjected to HRMS and their structures confirmed by fragmentation (see FIGS. 19 to 21; Table 3). NMR analysis was carried out on TruD and PatD heterocyclised macrocycles, as shown in FIGS. 20 and 21) (Tables 7 and 8).
For B2, the “macrocyclized (ion count analysis)” value stood at 100%.

For another series, the system named is PatGmac. Kind of series: Macrocyclization of substrate peptides by PatGmac. Format: biochemical, Prochloron sp.
Details: not given
Here is the method: as §1
The VPAPIPFPAYDG (SEQ ID NO: 85) peptide was chosen to match the residues equivalent to P8-P4′, the eight-residue cassette and four C-terminal residue macrocyclization signature.
as §2
Consider “VPAPIPFPAYDG [substrate mimic peptide, prolines mimic heterocycles]”, for which the “macrocyclization of the substrate by PatGmac (rate)” value is “can in fact be macrocyclized by PatGmac (albeit slowly)”.
Still for that read-out and setting: with VGAGIGFPAYRG the entry was “an order of magnitude faster than GVAGIGFPAYRG”.

In the next series the test system is […]. Kind of series: Macrocyclization reaction, final product ratios by LC-ESI MS ion counts. Format: biochemical.
Details: not given
The source holds these as a separate data set.
On to B1, for which the “substrate consumption rate relative to native protein” value is “approximately the rate of native protein”.
As for B3, the “substrate consumption rate relative to native protein” value was “substantially slower”.
Still for that read-out and setting: under B4 stands “approximately the rate of native protein”.
For the molecule B5, the “substrate consumption rate relative to native protein” value is reported as “approximately the rate of native protein”.
On the same count and under the same terms, with B7 the entry was “approximately the rate of native protein”.

In another series the test system is […].
Assay: not given
The note with it: rates reported to date; cited from earlier work.
In the case of B2, the turnover rate is recorded as roughly 1 per day.
